What was measured:
Test in all cases: anti-FLAG co-immunoprecipitation, SILAC LC-MS
Conditions in all cases: chain shown with the change; Ramos PTP1B KO cells; n = 3; read off a plot; scale: log10 SILAC ratio
[1] = biological target: growth factor receptor-bound protein 2 (GRB2), P62993
[2] = biological target: amyloid-like protein 2 (APLP2), Q06481
PLCγ2, P16885 = biological target: T1, PLCγ2, P16885
T1 chain: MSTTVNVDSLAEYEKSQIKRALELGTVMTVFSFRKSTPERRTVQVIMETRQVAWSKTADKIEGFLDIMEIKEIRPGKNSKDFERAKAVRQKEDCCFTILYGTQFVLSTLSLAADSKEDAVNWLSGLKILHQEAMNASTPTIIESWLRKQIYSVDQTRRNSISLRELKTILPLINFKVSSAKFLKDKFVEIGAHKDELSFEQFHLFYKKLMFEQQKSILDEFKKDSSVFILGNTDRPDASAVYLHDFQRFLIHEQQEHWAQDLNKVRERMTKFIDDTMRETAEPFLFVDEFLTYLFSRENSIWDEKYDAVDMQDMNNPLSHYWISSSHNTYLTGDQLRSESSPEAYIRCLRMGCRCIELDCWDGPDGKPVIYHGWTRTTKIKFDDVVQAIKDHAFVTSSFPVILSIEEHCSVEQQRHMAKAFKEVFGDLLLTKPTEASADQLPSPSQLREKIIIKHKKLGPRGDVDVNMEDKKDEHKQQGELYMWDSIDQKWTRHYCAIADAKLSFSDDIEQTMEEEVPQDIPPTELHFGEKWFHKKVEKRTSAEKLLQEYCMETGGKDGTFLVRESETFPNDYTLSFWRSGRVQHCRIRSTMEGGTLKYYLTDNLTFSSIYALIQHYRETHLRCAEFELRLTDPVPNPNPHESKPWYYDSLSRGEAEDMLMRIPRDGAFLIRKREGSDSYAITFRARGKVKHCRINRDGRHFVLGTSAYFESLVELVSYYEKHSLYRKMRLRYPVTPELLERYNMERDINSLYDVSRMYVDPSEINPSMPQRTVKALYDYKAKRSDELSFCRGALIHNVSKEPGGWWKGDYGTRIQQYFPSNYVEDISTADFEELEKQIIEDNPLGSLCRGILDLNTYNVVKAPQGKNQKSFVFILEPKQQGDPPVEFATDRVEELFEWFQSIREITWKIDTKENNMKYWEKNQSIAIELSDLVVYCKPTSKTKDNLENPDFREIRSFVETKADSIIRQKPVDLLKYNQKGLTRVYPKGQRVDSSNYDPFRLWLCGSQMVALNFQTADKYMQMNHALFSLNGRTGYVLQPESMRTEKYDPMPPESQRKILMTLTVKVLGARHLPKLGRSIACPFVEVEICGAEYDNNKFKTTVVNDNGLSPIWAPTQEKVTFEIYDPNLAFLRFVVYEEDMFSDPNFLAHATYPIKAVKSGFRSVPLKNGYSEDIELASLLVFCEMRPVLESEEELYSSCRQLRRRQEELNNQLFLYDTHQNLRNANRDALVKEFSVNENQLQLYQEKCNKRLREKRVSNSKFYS

[3] = biological target: E3 ubiquitin-protein ligase CBL, P22681
PLCγ1, P19174 = biological target: T2, PLCγ1, P19174
T2 chain: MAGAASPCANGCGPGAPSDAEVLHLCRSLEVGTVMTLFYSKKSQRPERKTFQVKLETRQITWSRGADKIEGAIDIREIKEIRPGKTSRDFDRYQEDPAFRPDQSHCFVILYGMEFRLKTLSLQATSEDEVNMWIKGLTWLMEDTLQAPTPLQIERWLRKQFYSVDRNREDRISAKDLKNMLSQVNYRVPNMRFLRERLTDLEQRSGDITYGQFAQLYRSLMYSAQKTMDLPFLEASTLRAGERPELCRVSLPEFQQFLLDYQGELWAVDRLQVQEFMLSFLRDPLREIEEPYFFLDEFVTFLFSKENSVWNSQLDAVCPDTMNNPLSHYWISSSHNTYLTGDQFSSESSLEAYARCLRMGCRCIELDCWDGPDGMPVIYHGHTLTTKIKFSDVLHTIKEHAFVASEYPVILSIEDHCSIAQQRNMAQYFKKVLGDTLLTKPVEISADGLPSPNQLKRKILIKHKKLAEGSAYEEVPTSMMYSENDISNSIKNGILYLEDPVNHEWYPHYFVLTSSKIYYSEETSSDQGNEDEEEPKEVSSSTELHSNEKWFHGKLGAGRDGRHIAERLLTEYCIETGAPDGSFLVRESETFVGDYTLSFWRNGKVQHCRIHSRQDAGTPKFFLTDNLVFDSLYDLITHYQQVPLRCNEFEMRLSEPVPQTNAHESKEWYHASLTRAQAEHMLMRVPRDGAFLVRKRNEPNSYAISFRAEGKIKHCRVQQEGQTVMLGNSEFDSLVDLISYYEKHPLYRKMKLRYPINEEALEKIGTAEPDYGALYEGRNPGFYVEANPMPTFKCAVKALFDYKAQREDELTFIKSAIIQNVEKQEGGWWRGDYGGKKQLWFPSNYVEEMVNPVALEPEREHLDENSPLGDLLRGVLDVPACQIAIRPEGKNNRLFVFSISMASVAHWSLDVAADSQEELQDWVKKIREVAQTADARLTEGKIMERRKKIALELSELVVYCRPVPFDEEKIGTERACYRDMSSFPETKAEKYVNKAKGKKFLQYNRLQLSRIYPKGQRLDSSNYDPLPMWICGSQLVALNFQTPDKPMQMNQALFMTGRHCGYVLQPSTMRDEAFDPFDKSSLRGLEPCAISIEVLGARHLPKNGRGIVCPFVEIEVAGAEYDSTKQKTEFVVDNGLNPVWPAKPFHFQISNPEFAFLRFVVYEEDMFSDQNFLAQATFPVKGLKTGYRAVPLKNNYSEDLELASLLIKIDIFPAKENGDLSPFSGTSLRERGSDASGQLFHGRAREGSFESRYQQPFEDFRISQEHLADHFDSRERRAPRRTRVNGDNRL

[4] = biological target: T3, epidermal growth factor receptor substrate 15-like 1 (EPS15L1), Q9UBC2
T3 chain: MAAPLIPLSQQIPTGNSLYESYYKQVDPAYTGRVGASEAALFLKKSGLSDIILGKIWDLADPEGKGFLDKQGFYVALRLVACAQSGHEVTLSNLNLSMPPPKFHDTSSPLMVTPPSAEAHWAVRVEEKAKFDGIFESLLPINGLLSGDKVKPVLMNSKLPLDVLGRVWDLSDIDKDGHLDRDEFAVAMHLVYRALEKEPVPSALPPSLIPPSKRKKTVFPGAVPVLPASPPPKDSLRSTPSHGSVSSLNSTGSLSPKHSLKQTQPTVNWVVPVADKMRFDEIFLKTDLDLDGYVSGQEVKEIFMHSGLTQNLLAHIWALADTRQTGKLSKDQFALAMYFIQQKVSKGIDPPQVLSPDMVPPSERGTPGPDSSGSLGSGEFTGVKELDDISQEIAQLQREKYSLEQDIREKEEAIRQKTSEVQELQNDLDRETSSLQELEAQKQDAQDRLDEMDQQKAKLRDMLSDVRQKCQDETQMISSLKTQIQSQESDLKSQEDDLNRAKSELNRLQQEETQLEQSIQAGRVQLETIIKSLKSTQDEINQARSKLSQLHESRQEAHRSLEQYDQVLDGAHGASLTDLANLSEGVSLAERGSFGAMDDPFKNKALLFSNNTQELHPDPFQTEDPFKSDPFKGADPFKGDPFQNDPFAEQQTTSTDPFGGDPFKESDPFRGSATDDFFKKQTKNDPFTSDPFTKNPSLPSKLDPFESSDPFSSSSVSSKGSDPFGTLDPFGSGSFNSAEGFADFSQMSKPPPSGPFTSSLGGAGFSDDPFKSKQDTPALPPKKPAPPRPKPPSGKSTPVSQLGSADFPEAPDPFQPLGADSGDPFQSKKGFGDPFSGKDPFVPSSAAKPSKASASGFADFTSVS

[5] = biological target: T4, intersectin-2 (ITSN2), Q9NZM3
T4 chain: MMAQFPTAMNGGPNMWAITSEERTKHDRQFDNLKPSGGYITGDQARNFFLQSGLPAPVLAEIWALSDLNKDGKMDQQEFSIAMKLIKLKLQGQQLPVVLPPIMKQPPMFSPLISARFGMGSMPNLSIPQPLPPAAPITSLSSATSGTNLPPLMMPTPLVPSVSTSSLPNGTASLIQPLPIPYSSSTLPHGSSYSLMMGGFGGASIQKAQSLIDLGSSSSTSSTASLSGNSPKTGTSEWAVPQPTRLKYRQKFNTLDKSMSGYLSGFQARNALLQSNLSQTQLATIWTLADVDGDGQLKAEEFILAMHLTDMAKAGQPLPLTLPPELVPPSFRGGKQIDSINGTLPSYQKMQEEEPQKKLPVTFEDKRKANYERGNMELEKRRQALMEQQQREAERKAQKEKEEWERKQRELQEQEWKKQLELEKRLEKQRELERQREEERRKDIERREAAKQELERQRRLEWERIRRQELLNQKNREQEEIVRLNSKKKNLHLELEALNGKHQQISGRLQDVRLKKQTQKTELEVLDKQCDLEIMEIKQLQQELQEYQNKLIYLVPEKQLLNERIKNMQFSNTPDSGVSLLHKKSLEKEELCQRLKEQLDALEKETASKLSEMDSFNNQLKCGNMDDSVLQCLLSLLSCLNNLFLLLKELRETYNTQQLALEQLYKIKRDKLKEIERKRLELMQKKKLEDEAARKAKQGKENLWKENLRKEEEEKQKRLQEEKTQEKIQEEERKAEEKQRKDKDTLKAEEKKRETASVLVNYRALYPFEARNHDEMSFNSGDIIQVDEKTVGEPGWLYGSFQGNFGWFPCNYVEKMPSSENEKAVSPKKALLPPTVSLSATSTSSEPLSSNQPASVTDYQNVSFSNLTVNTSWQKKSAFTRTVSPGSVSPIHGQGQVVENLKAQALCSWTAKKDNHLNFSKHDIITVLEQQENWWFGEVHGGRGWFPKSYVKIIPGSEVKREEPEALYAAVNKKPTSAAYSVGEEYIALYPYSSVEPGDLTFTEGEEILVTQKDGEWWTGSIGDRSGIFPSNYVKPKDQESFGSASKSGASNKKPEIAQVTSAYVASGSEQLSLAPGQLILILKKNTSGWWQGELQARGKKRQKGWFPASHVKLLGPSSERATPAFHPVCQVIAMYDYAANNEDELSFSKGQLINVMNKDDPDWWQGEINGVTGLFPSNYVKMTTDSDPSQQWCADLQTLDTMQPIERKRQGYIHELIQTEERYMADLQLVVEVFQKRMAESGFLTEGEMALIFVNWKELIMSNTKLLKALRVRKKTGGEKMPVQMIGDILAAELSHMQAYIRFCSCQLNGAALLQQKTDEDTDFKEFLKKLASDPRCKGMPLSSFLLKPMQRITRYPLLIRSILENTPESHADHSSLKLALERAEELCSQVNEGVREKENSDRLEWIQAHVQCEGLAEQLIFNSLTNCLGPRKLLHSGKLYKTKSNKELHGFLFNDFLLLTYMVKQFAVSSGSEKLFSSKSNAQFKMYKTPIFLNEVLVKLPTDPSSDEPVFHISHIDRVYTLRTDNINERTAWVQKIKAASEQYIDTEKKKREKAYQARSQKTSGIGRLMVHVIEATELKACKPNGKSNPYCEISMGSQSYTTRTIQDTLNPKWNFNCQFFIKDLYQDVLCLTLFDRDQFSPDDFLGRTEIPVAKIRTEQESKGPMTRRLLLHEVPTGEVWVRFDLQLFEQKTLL

Sequence of amyloid-like protein 2 (APLP2), Q06481 (Q06481 32-763): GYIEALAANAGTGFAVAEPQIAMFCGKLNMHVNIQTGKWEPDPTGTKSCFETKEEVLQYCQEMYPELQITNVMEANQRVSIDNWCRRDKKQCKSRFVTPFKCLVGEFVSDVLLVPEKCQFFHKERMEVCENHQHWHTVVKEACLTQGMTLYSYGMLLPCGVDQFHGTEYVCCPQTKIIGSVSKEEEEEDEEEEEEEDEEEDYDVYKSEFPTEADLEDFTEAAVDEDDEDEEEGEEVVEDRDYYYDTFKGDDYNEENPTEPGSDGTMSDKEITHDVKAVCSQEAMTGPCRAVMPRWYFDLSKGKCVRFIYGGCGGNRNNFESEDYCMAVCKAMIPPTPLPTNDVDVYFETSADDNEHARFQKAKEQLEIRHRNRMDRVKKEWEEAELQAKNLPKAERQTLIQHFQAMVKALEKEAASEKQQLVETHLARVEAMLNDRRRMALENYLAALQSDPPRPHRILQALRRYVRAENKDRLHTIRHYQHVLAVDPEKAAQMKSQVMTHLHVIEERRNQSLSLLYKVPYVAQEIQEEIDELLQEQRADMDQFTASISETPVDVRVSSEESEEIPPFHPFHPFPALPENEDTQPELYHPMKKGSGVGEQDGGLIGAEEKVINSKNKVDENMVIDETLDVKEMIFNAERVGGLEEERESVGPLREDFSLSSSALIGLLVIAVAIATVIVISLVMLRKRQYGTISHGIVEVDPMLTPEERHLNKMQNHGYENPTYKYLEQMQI

enrichment [1]: 0.87 | enrichment [2]: 1.3 | enrichment (PLCγ2, P16885): 0.48 | enrichment [3]: 0.74 | enrichment (PLCγ1, P19174): 0.87 | enrichment [4]: 0.59 | enrichment [5]: 0.62
B1: D181A; Y46F (protein)
chain: MEMEKEFEQIDKSGSWAAIYQDIRHEASDFPCRVAKLPKNKNRNRFRDVSPFDHSRIKLHQEDNDYINASLIKMEEAQRSYILTQGPLPNTCGHFWEMVWEQKSRGVVMLNRVMEKGSLKCAQYWPQKEEKEMIFEDTNLKLTLISEDIKSYYTVRQLELENLTTQETREILHFHYTTWPAFGVPESPASFLNFLFKVRESGSLSPEHGPVVVHCSAGIGRSGTFCLADTCLLLMDKRKDPSSVDIKKVLLEMRKFRMGLIQTADQLRFSYLAVIEGAKFIMGDSSVQDQWKELSHEDLEPPPEHIPPPPRPPKRILEPHNGKCREFFPNHQWVKEETQEDKDCPIKEEKGSPLNAAPYGIESMSQDTEVRSRVVGGSLRGAQAASPAKGEPSLPEKDEDHALSY
